Test results published in patent publication US20250092426, “CAS ENDONUCLEASES AND RELATED METHODS” (Flagship Pioneering Innovations VII, LLC, published 2025).

Target: T1, CasEnd-14 (synthetic construct)
T1 chain: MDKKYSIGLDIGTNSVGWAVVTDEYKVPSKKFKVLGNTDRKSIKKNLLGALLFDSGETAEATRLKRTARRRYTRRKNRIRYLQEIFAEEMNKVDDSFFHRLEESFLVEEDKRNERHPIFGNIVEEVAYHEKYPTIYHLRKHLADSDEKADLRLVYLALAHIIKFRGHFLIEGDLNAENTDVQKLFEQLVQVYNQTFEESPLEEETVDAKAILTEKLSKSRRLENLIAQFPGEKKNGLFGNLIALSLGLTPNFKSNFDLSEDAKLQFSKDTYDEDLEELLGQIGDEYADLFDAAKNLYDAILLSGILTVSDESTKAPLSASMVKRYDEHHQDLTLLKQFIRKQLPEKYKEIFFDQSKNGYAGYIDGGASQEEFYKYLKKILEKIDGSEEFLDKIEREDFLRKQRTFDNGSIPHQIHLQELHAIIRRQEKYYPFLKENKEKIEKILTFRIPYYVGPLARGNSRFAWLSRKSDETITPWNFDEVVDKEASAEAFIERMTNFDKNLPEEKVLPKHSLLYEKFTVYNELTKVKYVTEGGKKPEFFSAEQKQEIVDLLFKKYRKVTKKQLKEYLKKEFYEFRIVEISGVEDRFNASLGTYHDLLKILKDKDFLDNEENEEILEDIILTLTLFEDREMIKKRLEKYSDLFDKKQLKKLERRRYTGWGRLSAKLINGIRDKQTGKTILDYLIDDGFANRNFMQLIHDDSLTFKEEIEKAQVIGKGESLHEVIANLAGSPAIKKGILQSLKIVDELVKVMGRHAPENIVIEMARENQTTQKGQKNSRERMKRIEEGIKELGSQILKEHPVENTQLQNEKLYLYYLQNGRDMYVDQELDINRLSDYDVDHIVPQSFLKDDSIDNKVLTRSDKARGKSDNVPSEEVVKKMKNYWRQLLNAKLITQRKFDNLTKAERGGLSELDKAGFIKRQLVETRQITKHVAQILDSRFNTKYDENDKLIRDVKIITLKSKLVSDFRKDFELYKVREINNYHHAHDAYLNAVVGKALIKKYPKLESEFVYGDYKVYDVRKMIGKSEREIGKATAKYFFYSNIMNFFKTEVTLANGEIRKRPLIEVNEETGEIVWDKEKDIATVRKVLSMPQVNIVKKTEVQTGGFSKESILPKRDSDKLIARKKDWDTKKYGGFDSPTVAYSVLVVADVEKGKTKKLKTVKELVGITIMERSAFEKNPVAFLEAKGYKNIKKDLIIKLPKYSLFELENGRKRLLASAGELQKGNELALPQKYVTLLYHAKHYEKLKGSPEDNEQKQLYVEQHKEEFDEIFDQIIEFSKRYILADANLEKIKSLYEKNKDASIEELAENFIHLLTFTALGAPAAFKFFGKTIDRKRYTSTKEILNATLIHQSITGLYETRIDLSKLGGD
Assay: cell_activity; +++; HEK293T; PAM not stated
Experimental: The ability of the candidate endonucleases, including endonucleases 1-38 (CasEnds 1-38) (set forth in Table 1 and SEQ ID NOS: 1-38, respectively), to mediate target nucleic acid editing was assessed utilizing a blue fluorescent protein (BFP) to green fluorescent protein (GFP) conversion assay, wherein programmed nucleotide editing of the BFP gene was measured by the expression of GFP (signifying the conversion of […] via the programmed nucleotide edit in the BFP gene). The conversion assay was conducted utilizing the reverse transcriptase-based system (as described above in Example 2) comprising a template RNA (designed to convert BFP to GFP) and a fusion protein comprising a retroviral reverse transcriptase and the individual subject Cas endonuclease. The amino acid sequence of the base portion of the fusion protein (without the individual subject Cas endonuclease) is set forth in Table 7 (SEQ ID NO: 43).
Briefly, 200 ng of plasmid DNA encoding the subject fusion protein (containing one of the subject CasEnds) and 200 ng of template RNA (in plasmid format) were added to 25 μL SF buffer containing 250,000 HEK293T BFP-expressing cells. Nucleofection was mediated utilizing program DS-150. The day of nucleofection was marked as day 0. At day 4, the cells were harvested and analyzed by flow cytometry to assess the level of BFP and GFP expression in HEK293T cells. Cells having GFP signal were defined as having undergone a successful editing event, and the percent of cells that were GFP+ on day 4 was used to determine the performance of each Cas endonuclease.

B1: BFP-to-GFP template RNA ; BFP reporter protospacer (ssRNA ; dsDNA)
RNA: GCCGAAGCACUGCACGCCGUGUUUUAGAGCUAGAAAUAGCAAGUUAAAAUAAGGCUAGUCCGUUAUCAACUUGAAAAAGUGGCACCGAGUCGGUGCACCCUGACGUACGGCGUGCAGUGCUU
DNA 1: GCCGAAGCACTGCACGCCGT
DNA 2: ACGGCGTGCAGTGCTTCGGC
- activity: ≥ 100 % of reference
